From the DeepSol protein solubility set

assay: soluble on expression in E. coli; label from the status in PepcDB or PDB records

**Q.** With “MKCKDDMSAVLTAEQALKLVGEMFVYHMPFNRALGMELERYEKEFAQLAFKNQPMMVGNWAQSILHGGVIASALDVAAGLVCVGSTLTRHETISEDELRQRLSRMGTIDLRVDYLRPGRGERFTATSSLLRAGNKVAVARVELHNEEQLYIASATATYMVGLEHHHHHH” as the sequence, how does the “soluble on expression in E. coli” value read?
**A.** The value was “soluble”.

**Q.** For “MGHHHHHHSHPQLLHFVDQYREQLIARVTSVEVVLDKLHGQVLSQEQYERVLAENTRPSQMRKLFSLSQSWDRKCKDGLYQALKETHPHLIMELWEKG”, which “soluble on expression in E. coli” value is on record?
**A.** Its value is “not soluble”.

**Q.** With “MGSDKIHHHHHHMRISANFDGGNIETISLANPDDIQLAIRPDAGGEFYQWFNFRFEATIGKTYTLNILNAGGASYLKGWEDYQAVASYDRQTWFRLPTEYKDGKLSISVELDCEAIQIAYFTPYSYERHLDLISAVQLHPLVSTEHLGLTLDGRDMTLVKVGDDDPSKKSIWITARQHPGETMAEWLVEGLLNQLLDNDCPTSKALLDKANFYIVPNMNPDGSVRGHLRTNAVGANLNREWQTPSLERSPEVYYVVNKMHETGVDLFYDVHGDEGLPYVFLAGCEGIPNYSDKLASLQQDFVAALSLASADFQTEFGYDKDEPGKANLTVACNWVANTFKCLSNTLEMPFKDNANLADPFQGWSPERSVYFGEASLIAMRAVIDKIGQ” as the sequence, how does the “soluble on expression in E. coli” value read?
**A.** Its value is “not soluble”.

**Q.** For “MAYDLWYWDGIPGRGEFVRLALEAGKIPYRDRAREPGEDMLADMRRRRDTAPFAPPYLVADGMTIAQTANILLFLGVEHGLAPPDRAGRLWVNQLQLTIADLTAEAHDVHHPVAAGLYYEDQQDVALRRAADFRETRMPKFMQYFEQALDRPGGWLTDMGRWSYADLSLYHVVEGLLHAFPRRMRTLMHRYPRLMTLHARVAELPELRGYLASDRRLPFGDGIFRHYPELDGA”, which “soluble on expression in E. coli” value is on record?
**A.** The value was “not soluble”.

**Q.** For “MGSDKIHHHHHHMDKEEQYLLFALSTPMEVLYIGNEPSHTSPAMYTGIPAVDLSDSWGIDNREDLIQTIYRMTDDGHAADLAPFYIRWFTLSPRQWREFTAQFGEQGQIYARFVAETALCCGRGGIKAWDYVRMGFLCRMGVLNQWLTEEESLWLQSRIYARAYYFYDGWTQYFAAYSLGRLYWQAKGDTIQAYFAHLKYDASGARMFNELASTTESYYAQLPWRPLNEQPTCPETLKGVSDL”, which “soluble on expression in E. coli” value is on record?
**A.** The value was “not soluble”.

**Q.** With “DPGERLYDLNMPAYVKFNYMAEREDELSLIKGTKVIVMEKCSDGWWRGSYNGQVGWFPSNYVTEEGDSPLGDHVG” as the sequence, how does the “soluble on expression in E. coli” value read?
**A.** The value was “soluble”.

**Q.** For “ALMITDECINCDVCEPECPNGAISQGDETYVIEPSLCTECVGHYETSQCVEVCPVDAIIKDPSHEETEDELRAKYERITGEG”, which “soluble on expression in E. coli” value is on record?
**A.** The value was “soluble”.

**Q.** For “ADLGHQTLGSNDGWGAYSTGTTGGSKASSSNVYTVSNRNQLVSALGKETNTTPKIIYIKGTIDMNVDDNLKPLGLNDYKDPEYDLDKYLKAYDPSTWGKKEPSGTQEEARARSQKNQKARVMVDIPANTTIVGSGTNAKVVGGNFQIKSDNVIIRNIEFQDAYDYFPQWDPTAGSSGNWASQYDNITINGGTHIWIDHCTFNDGSRPDSTSPKYYGRKYQHHDGQTDASNGANYITMSYNYYHDHDASSIFGSSDSKTSDDGKLKITLHHNRYKNIVQRAPRVRFGQVHVYNNYYEGSTSSSSYPFSYAWGIGKSSKIYAQNNVIDVPGLSAAKTISVFSGGTALYDSGTLLNGTQINASAANGLSSSVGWTPSLHGSIDASANVKSNVINQAGAGKLN”, which “soluble on expression in E. coli” value is on record?
**A.** The value was “soluble”.

**Q.** With “MGKHEKGSSKDLANRTKSKGLQKLKFFCQMCQKQCRDANGFKCHLTSEAHQRQLLLFAENSNSYLRQFSNDFEKNFMQLLRTSYGTKRVRANEVYNAFIKDKGHVHMNSTVWHSLTGFVQYLGSSGKCKIDEGDKGWYIAYIDQEALIRKEEDQRKQQQEKDDEERHMQIMDGMVQRGKELAGDDEHEYEATELIRDTPDQKIQLDLNLGILDRKLDVKSGVASAKISIFDMPKVKKEDPDEPGPSQPSRKSGKKRSRSRSPAAKKFSKKSALDEIKEMEERKKERKNRKDYWMREGIVVKVITKSLGSEYYKAKGVVRKVVDDYTAQVKLDDGTVVKLDQEHVETVIPSLGRQMMIVNGAYRGQEATLESIDEKRFSLRLKIASGPTRGRQIDVPYEDASKLA” as the sequence, how does the “soluble on expression in E. coli” value read?
**A.** Its value is “not soluble”.
